From patent US20080027001A1, “NOGO RECEPTOR FUNCTIONAL MOTIFS, PEPTIDE MIMETICS, AND MUTATED FUNCTIONAL MOTIFS RELATED THERETO, AND METHODS OF USING THE SAME” (priority 2006, published 2008)
Changes are numbered by the printed parent chain. In names and notes the source's numbering stands.

T1: MAG-AP (Homo sapiens, UniProt P20916)
T1 construct: human MAG; NM_002361; amino acids 1-516; made in house; NgR1 transiently transfected into COS-7 cells
T1 sequence (P20916 20-516): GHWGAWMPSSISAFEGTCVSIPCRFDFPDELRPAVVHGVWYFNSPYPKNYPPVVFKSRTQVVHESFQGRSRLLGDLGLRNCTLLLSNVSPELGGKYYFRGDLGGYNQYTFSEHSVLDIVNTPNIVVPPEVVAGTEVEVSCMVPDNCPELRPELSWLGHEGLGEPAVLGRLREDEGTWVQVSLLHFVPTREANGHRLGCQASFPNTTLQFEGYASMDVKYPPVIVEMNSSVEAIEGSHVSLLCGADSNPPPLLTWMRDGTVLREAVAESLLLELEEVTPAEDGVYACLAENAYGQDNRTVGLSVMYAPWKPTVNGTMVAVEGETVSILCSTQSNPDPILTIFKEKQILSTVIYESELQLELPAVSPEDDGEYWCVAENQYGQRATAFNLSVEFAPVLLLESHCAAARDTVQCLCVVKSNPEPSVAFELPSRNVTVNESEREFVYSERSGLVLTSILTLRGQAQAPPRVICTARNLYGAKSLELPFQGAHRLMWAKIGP

B1: EM7: human NgR1 point mutant K277D/R279D (protein)
chain: CPGACVCYNEPKVTTSCPQQGLQAVPVGIPAASQRIFLHGNRISHVPAASFRACRNLTILWLHSNVLARIDAAAFTGLALLEQLDLSDNAQLRSVDPATFHGLGRLHTLHLDRCGLQELGPGLFRGLAALQYLYLQDNALQALPDDTFRDLGNLTHLFLHGNRISSVPERAFRGLHSLDRLLLHQNRVAHVHPHAFRDLGRLMTLYLFANNLSALPTEALAPLRALQYLRLNDNPWVCDCRARPLWAWLQDFDGSSSEVPCSLPQRLAGRDLKRLAANDLQGCAVATGPYHPIWTGRATDEEPLGLPKCCQPDAADKASVLEPGRPASAGNALKGRVPPGDSPPGNGSGPRHINDSPFGTLPGSAEPPLTAVRPEGSEPPGFPTSGPRRRPGCSRKNRTRSHCRLGQAGSGGGGTGDSEGS
B2: EM11: human NgR1 point mutant R279A (protein)
chain: B1 chain with D251K, D253A
B3: EM8: human NgR1 point mutant K277A, R279A (protein)
chain: B1 chain with D251A, D253A

Biological target: T1, MAG-AP
Test: Cell-surface NgR binding assay, MAG-AP
Settings: mutant NgR1 in COS-7 cells; MAG-AP 10 μg/ml (FIG. 7B)
Method: COS-7 cells were cotransfected with either wild type or mutant NgR1 constructs along with a CMV-beta-galactosidase plasmid (pCMVb, BD Biosciences, San Jose, Calif.) as a transfection control. Transfection was performed in 6-well plates using Lipofectamine 2000 (Invitrogen, Carlsbad, Calif.) following the manufacturer's protocol. The next day, cells were trypsinized and seeded at 30,000 cells per well in duplicate polylysine-coated 96-well plates (BD Biosciences); one plate was used in the binding assay, and the other was used to correct for transfection efficiency by measuring beta-galactosidase activity (described below). The remaining cells were separately plated and assayed for surface expression of the NgR1 proteins by immunocytochemistry (Example 1.9) and for total NgR1 protein levels by Western blot analysis (Example 1.8). […] Binding of AP-tagged ligands was measured using the Great EscAPe SEAP Kit (BD Biosciences) following the manufacturer's recommended protocol. […] Sixty microliters of diluted CSPD® substrate (Applied Biosystems, Foster City, Calif.) was then added per well, incubated for 10 minutes at room temperature, and then read on an LMAXII luminometer (Molecular Devices). […] Beta-galactosidase activity was measured using the luminescent beta-gal detection kit II (BD Biosciences) following the manufacturer's recommended protocol. […]
Separate statistical analysis was performed for MAG-AP and Nogo-66-AP binding; a linear mixed model was fitted to the data using the receptors as the fixed effects and the experiments, replicates within each experiment, and receptor×experiment interactions as the random effects. […] Pairwise comparisons were performed between receptors in the framework of the linear mixed model, and raw p-values and Tukey-Kramer multiplicity-adjusted p-values were calculated. The corresponding 95% confidence intervals were also calculated.
(SEQ ID NO:51). […] Nogo-66-AP(C47V) concentration was determined by measuring alkaline phosphatase activity and by Western blot analysis for alkaline phosphatase. […]

Molecule | reduction in binding of soluble MAG (MAG-AP) relative to wild type NgR1 [%]
B1 | 57
B2 | 36
B3 | 58
